Reference: article PMC8444148 (Molecular psychiatry, 2019)

T1: ATF4 278-349 (basic region + leucine zipper) (UniProt Q06507 278-349)
T1 sequence: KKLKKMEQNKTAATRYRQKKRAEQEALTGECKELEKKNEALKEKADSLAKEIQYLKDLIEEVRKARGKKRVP

B1: DISC1 322-852 (predicted helical region of DISC1) (domain or fragment, UniProt Q811T9-1 322-852, looked up)
chain: ADAHGWHTLLREWEPMLQDYLLSNRRQLEVTSLILKLQKCQEKVVEDGDYDTAETLRQRLEELEQEKGRLSWALPSQQPALRSFLGYLAAQIQVALHGATQRAGSDDPEAPLEGQLRTTAQDSLPASITRRDWLIREKQRLQKEIEALQARMSALEAKEKRLSQELEEQEVLLRWPGCDLMALVAQMSPGQLQEVSKALGETLTSANQAPFQVEPPETLRSLRERTKSLNLAVRELTAQVCSGEKLCSSLRRRLSDLDTRLPALLEAKMLALSGSCFSTAKELTEEIWALSSEREGLEMFLGRLLALSSRNSRRLGIVKEDHLRCRQDLALQDAAHKTRMKANTVKCMEVLEGQLSSCRCPLLGRVWKADLETCQLLMQSLQLQEAGSSPHAEDEEQVHSTGEAAQTAALAVPRTPHPEEEKSPLQVLQEWDTHSALSPHCAAGPWKEDSHIVSAEVGEKCEAIGVKLLHLEDQLLGAMYSHDEALFQSLQGELQTVKETLQAMILQLQPTKEAGEASASYPTAGAQETEA
B2: CRE dsDNA (dsDNA)
DNA 1: GCAGATGACGTCATCTGC
DNA 2: GCAGATGACGTCATCTGC
B3: DISC1-CC (coiled coil, residues 765-835) (domain or fragment, UniProt Q811T9-1 765-835, looked up)
chain: GPWKEDSHIVSAEVGEKCEAIGVKLLHLEDQLLGAMYSHDEALFQSLQGELQTVKETLQAMILQLQPTKEA
B4: ATF4 leucine zipper domain (residues 314-349) (domain or fragment, UniProt Q06507 314-349, looked up)
chain: KNEALKEKADSLAKEIQYLKDLIEEVRKARGKKRVP
B5: trx tagged-ATF4-LZ (domain or fragment, UniProt Q06507 314-349, looked up)
chain: B4 chain

Experiments:
[1] = target: B4; test: ITC
[2] = target: T1, ATF4 278-349 (basic region + leucine …); test: ITC
[3] = target: C/EBPζ (CHOP) (UniProt P35639 1-168); test: ITC
[4] = target: C/EBPα (UniProt P53566 1-359); test: ITC
[5] = target: B1; test: ITC
[6] = target: the molecule itself; test: SEC-MALS

C/EBPζ (CHOP), sequence (P35639 whole entry): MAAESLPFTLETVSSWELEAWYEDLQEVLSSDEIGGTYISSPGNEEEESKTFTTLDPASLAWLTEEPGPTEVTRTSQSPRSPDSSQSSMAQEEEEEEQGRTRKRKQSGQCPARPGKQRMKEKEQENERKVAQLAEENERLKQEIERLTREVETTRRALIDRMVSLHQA
C/EBPα, sequence (P53566 whole entry): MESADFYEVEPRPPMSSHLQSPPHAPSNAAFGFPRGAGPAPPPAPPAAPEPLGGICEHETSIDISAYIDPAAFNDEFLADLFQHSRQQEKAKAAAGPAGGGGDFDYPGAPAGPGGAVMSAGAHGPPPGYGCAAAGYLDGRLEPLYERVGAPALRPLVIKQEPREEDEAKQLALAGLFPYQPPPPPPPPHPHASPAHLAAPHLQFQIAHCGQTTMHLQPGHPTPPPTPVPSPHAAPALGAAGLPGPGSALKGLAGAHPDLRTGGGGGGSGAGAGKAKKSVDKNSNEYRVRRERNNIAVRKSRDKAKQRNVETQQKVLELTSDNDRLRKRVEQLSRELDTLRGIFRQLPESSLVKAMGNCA

B1
stoichiometry N [1]: 1

B2
Kd [2]: ~12 nM

B3
fold weaker than the DISC1/ATF4 interaction [3]: ~2000 fold | Kd [4]: ~11000 nM

B4
Kd [5]: ~14 nM

B5
stoichiometry N [6]: 2
